Data reported in the Human Domainome abundance scans (Beltran et al. 2025).

B1: Transcriptional regulator ERG, residues 117 to 197; numbered along this chain, P11308 (parent)
chain: NMTTNERRVIVPADPTLWSTDHVRQWLEWAVKEYGLPDVNILLFQNIDGKELCKMTKDDFQRLTPSYNADILLSHLHYLRE

Variants of: B1
Experiment: abundance fitness (aPCA) (normalised: wild type 0, dead -1); higher = more abundant; growth selection in yeast, the domain comes from the species named
Conditions: Homo sapiens

Abundance fitness, by site and new letter:
R24: M -0.023; T 0.069; K 0; S -0.02; Y -0.209; Q 0.077; C -0.058; N -0.105; L -0.017; V -0.015; I -0.162; D -0.908; F -0.218; W -0.522; G -0.088; H -0.182; P -0.988; E -0.211
S19: T -0.073; K -0.065; F -0.719; A -0.223; I -0.697; R -0.145; V -0.716; L -0.565; Y -0.798; E -0.129; Q -0.235; G -0.133; P -0.994; H -0.18; N -0.008; D -0.014; W -0.683
A30: H -0.108; F -0.403; P -0.956; W -0.324; K -0.105; L -0.103; D -0.884; I -0.164; G -0.181; C -0.117; E -0.051; T -0.051; Y -0.655; Q -0.018; V -0.095; S -0.103; N -0.217
W26: R -0.808; I -0.942; N -0.657; G -0.965; Q -0.811; S -0.76; H -0.96; Y 0.011; F -0.068; V -0.778; A -0.886; K -0.785; T -1.34; P -0.956; C -0.982; E -0.727; L -0.658
A13: M -0.033; H 0.045; N 0.06; I 0.056; Q 0.11; T 0.108; K -0.05; D 0.235; P 0.116; W -0.122; L -0.046; F -0.074; C 0.009; Y -0.075; V -0.01; R 0.043; G 0.061
V11: M 0.087; L 0.067; Q -0.017; Y 0.113; N 0.063; R 0.209; K 0.029; S 0.104; W 0.2
L27: I -0.085; E -0.965; W -0.891; P -0.593; D -0.648; M -0.153; Y -0.584; T -0.628; R -0.912; K -0.623; F -0.493; C -0.47; S -1; N -1.02; Q -0.658
H22: Y -0.672; T -0.324; M -0.033; S -0.357; N 0.074; P -1.06; E 0.018; V -0.198; F -0.701; W -0.55; I -0.488; L -0.532; G -0.18; A -0.286; D -0.014; C -0.229
P12: H -0.452; E -0.019; F -0.486; K -0.215; C -0.644; T -0.343; V -0.631; I -1.37; M -0.65; S -0.209; G -0.136; D -0.042; L -0.505; N -0.027; R -0.248; W -0.15; A -0.176; Y -0.45
T20: Y -0.276; I -0.11; L -0.198; Q -0.064; M -0.219; A 0.021; D -0.206; N -0.072; G -0.225; P 0.06; R -0.05; F -0.205; W -0.413; E 0.011; S -0.053; H -0.012
V31: E -0.154; C -0.111; D -0.498
P15: H -0.86; F -0.273; T -0.632; K -0.915; A -0.269; V -0.267; W -0.516; D -0.94; R -0.835; Q -0.495; C -0.323; N -0.967; I -0.171; M -0.638; S -0.611; G -0.803; Y -0.266; E -0.86; L -0.41
W18: A -0.676; Y -0.738; H -1.04; G -0.895; P -1.17; R -0.785; D -0.923; S -0.864; M -0.635; L -0.979; Q -0.578; F -0.886; C -1.04; E -0.885; N -0.994; K -0.625; V -0.937
V23: N -0.475; C -0.328; K -0.991; Q -1.04; G -0.997; S -0.761; A -0.68; T -0.167; L -0.874; P -0.877; I -0.5; H -0.846; Y -0.905; D -0.781; R -1.04; W -0.798
Q25: A 0.03; I -0.001; N -0.214; V 0.01; F -0.072; K -0.015; Y -0.07; S -0.05; M 0.022; C -0.015; D -0.061; P -1; H -0.046; E 0.022; G -0.095; L 0.064; R -0.003
L17: V 0.017; Y -0.097; G 0.074; F -0.295; C 0.042; P -1.08; T 0.154; I -0.002; W -0.041; N 0.053; M 0.046; R 0.039; Q 0.033; H 0.045; D 0.091; S 0.122; E 0.093
D21: T -0.065; S -0.008; Y -0.186; H -0.09; I -0.035; Q -0.087; N -0.113; L -0.106; R -0.051; K -0.138; A 0.004; W -0.141; G -0.032; F 0.024; C -0.09; V -0.077; E 0.042; M -0.084
E28: S -0.099; Q -0.062; F -0.24; N 0.012; R -0.095; D -0.146; L -0.09; I -0.108; Y -0.093; H 0.005; P -0.534; T -0.031; C -0.037; V -0.04; K -0.041; A -0.022; W -0.16
T16: F -0.008; M 0.02; I 0.048; P -0.428; N -0.061; S -0.064; L 0.052; C 0.028; Y 0.017; K -0.05; H 0.128; Q -0.171; G -0.026; R -0.092; D -0.115; W -0.115
W29: A 0.101; I -0.07; M -0.038; L -0.168; R -0.006; Y 0.006; V -0.143; F -0.098; S 0.11; H 0.082; K 0.048; C 0.017; P -1.08; D 0.21; E 0.127; G 0.111; T 0.065
D14: I -0.726; V -0.656; A -0.716; K -0.872; C -0.085; M -0.537; G -0.706; R -0.783; W -0.809; N -0.083; H -0.146; P -0.898; L -0.771; Y -0.723; T -0.417; F -0.444; E -0.346
